# From the nanobody polyreactivity screen of Harvey et al. (2022)
# Assay: yeast display, Sf9 membrane polyspecificity reagent, FACS + sequencing; frameworks hold sequencing errors
# Summary of the method: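 Polyreactivity labels are assigned by the sorting gate from which each nanobody was recovered. The gates were low and high (top ~1%), set on anti-HA fluorescence for expression and streptavidin fluorescence for reagent binding. Before sorting, galactose-induced (36–48 hours) yeast display cells were stained for 1 hour at 4 °C with 10% biotinylated, detergent-solubilized Sf9 membrane reagent.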
row,Sequence,polyreactivity (PSR sort gate)
1,QVQLVESGGGLVQAGGSLRLSCAASGGTFIRYAMGWYRQAPGKERELVAAISSSGGSTYYADSVKGRFTISRDNAKNTVYLQMNSLKPEDTAVYYCNGRQSRFKYDYWGQGTQVTVSS,high polyreactivity
2,QVQLVESGGGLVQAGGSLRLSCAASGIISGDYALGWYRQAPGKERELVARITSGDSTNYADSVKGRFTISRDNAKNTVYLQMNSLKPEDTAVYYCAADRVWAYWTYGYWGQGTQVTVSS,low polyreactivity
3,QVQLVESGGGLVQAGGSLRLSCAASGRIFKRYDMGWYRQAPGKERELVAAITGTGGSTYYADSVKGRFTISRDNAKNTVYLQMNSLKPEDTAVYYCAARLYNTYSGFAFGYWGQGTQVTVSS,high polyreactivity
4,QVQLVESGGGLVQAGGSLRLSCAASGRTFNQYAMGWYRQAPGKERELVAAISRRTGRTYYADSVKGRFTISRDNAKNTVYLQMNSLKPEDTAVYYCNTLYFVGPDYGYDYWGQGTQVTVSS,high polyreactivity
5,QVQLVESGGGLVQAGGSLRLSCAASGRIFSHNAMGWYRQAPGKERELVAAISRSGGRTYYADSVKGRFTISRYNAKNTVYVQMKSLKPEDTAVYYCAADYRLKKSPGYSGEDDYWGQGTQVTVSS,high polyreactivity
6,QVQLVESGGGVVQAGRSLRLSCAASGSTFQPYAMGSYRQAPGKEREFVATISGSAGSTYYADSVKGSFKISRDNAKNTVYLQMTSLKPEDTAVYYCNADSGWFGYDYWGQGTQVTVSS,low polyreactivity
7,IIQAGGSLRLCCAASGRTISVYAMGWYTQAAGKERELIADITSGGSTNYADSVKGRFTISRDNAKNTVYLQRNSLKPEDTAVYYCVAERQIRSFWSSRTYVFGYWGQGTQVTVSS,low polyreactivity
8,QVQLVESGGGLVQAGGSHRLSCDASGRTFWVNAMGWYRQAPGKERELVATIRGSGVSTYYADSVNGRFTISRDNAKNTVYLKMNSLKPVDTAVYYCATTYHRVGLQYTFDYLGQGTQVTVSS,low polyreactivity
9,QVQLVESGGGLVQAGGTLRLRCAPSGSIFWGNAIGWYRQAPGKERELVAAIDWSGGSTYYADSVKGRFTISRDNAKNTVYLLMYSLKPEDTAVYFCAASGRYDYDYWGQGTQVTVSS,low polyreactivity
10,QVQLVESGGGLVQAGGSLRLSCASSGNIFYLYAKGWYRQARGKERELVAAIRGSGSTYYADSVKGRFTISRDNAKNTVYLQMNSLKPEDTAVYYCNARVRSQYLYSGTALGYYYWGQGTQVTVSS,high polyreactivity
11,QVQLVESGGGLVQAGGSLRLSCAASGRIFIRNDMGWYRQAPGKERELVAVITRSGGRTYYADSVKGRFTISRDNAKNTVYLQMNSLKPEDTAVYYCAKRQAFKQAPYEYWGQGTQVTVSS,low polyreactivity
12,QVHLVESGGGLVQAGGSLRLSCAASGFTFDAYAMGWYRQAPGKERELVAAITRRSGSTYYADSVKGRFTISRDNAKNTVYLQMNSLKPEDTAVYYCAAVSVHRLGSTFGYWGQGTQVTVSS,high polyreactivity
13,QVQLVESGGGLVQAGGSLRLSCGASGRNFPGNAMGWYRQAPGKEREFVAVITSRTGNTYYADSVKGRFTISRDTAKNTVYLQMNSLKPEDSAVYYCNGEQYIWSEDYWGQGTQVSVSS,low polyreactivity
14,QVQLVESGGGLVQAGGSLRLSCAASGSIFPFYAMGWYRQAPGKERELVAAISSRGGSTYYADSVKGRFTISRDNAKNTVYLQMNSLKPEDTAVYYCAARDYSIKVRLGYWGQGTQVTVSS,low polyreactivity
15,QVQLVESGGGLVQAGGILRLSCAASGFIFSSNAMGWYRQAPGKERELVAAITSSGGGTYYADSVKGRFTISRDNAKNTVYLQMNSLKPEDTAVYYCNAAYKYAIPSYGYWGQGTQVTVSS,low polyreactivity
16,QVQLVESGGGLVQAGGSLRLSCAASGIIFPGYTMGWSRQAPGPEREVVAAISSGGRTNYADSVKGRFTISRDNAKNTVYLQMNSLKPEDTAVYYCAATRVASLGSPMYYCGQGTQVTVSS,high polyreactivity
17,QVQLVESGGGLVQAGGSLRLSCAASGSIFRYNTMGWYRQAPGKERELVASIRIGGSTYYADSVKGRFTISRDNAKNTVYLQMNSLKPEDTAVYYCAVRPYRSAGGSVTRGAYYYWGQGTQVTVSS,high polyreactivity
18,QVQLVESGGGLVQAGGSLRLSCAASGSTIYWYTMGWYRQPPGKEMELVAAITGGTGNTYYADSVKGRFTISRDNAKNTVYLQMNSLKPEDTAVYYCAAYYRRYDYDYWGQGTQVTVSS,high polyreactivity
19,QVQLVESGGGLVQAGGSLRLSCAASGRIFRVYAMGWYRHAPGKERELVAAISGRGGSTTYADSVKGRFTISRDNAKNTVYLQMNSLKPEDTAVYYCNTAYLAKRSGRRRFNYWGHGTQVTVSS,low polyreactivity
20,QVKLVESGGGLVQAGGSLRLSCAASGLTFDHNVMGWYRPAPGKERELVAAISRSGSSTYYADSVKGRFTISRDNAKNTVYLQMNSLKPEDTAVYYCAAARSRYSYATGFDYWGQGTQVTVSS,high polyreactivity
21,QVQLVESGGGLVQAGGSLRLSCAASGRTFRYYAMGLYRQAPGKERELVAAIRSGGTTYYADSVKGRFTISRDNAKNTVYLQMNSLKPEDTAVYYCAADGGKGGIRFGYWGQGTQVTVSS,high polyreactivity

row,Sequence,polyreactivity (PSR sort gate)
1,QVQLVESGGGLVQAGGSLRLSCAASGFTLDDNGMGWYRQAPGKERELVASITWSGGSTYYADSVKGRFTISRDNAKNTVYLQMNSLKPEDTAVYYCNVGDPIGGFLSYWGGDYWGQGTQVTVSS,low polyreactivity
2,QVQLVESGGGVVQAGGSLRLSCAATGRIFGVYAMGWYRQAPGKERELVAAISSTGGSTYYADSVKGRFTISRDNAKNTVYLQMNSLKPEDTAVYYCEYDYWGQGSQVTVSS,low polyreactivity
3,QVQLVESGGGLVQAGGSLRLSCAASGRILKWNARGWYRHAPGKERELVAAISQSGGSTYYADSVKGRFTISRDNAKNTVYLQMNSLKPEDTAVYYCAARRGSKFWGQGTQVTVSS,low polyreactivity
4,QVQLVESGGGLDQAGGSLRLSCAASGSTSPYYTMGWYRQAPGKERELVASINESGGSTYYADSVKGRFTISRDNAKNTVYLLMNSLKPEDTAVYYCNAEYTTPSYPVYRIDYYWFDYWGQGTQVTVSS,low polyreactivity
5,QVPLVESGGGLVQAGGSLRLSCAASGRIFSSYAMGWYRQAPGKERELVAAISSRGGSTYYADSVKGRFTISRDNAKNTVYLQMNSLKPEDTAVYYCARVKYSGVVYKYDYWGQGTQVTVSS,high polyreactivity
6,QVQLVESGGGLVQAGGSLRLSCAASGFISAYYAMGWYRQAPGKEMELVAAISWNGGRTFYADSVKGRFTISRDNAKNTVYLQMNSLKPEDTAVYYCAADGRLRGYGYWGQGTQVTVSS,high polyreactivity
7,QVQLVESGGGLVQAGGSLRLSCAASGSIFQCYTMGWSRQAPGKERELVAAISSTGSTNYADCVMGRFTISLDNAKNTVYLQMNSMNPEDTAVFYCAGVGTYLAGYQFDYWGQGTQVTVSS,low polyreactivity
8,QVQLVESGGGLVQAGGSLRLSCAASGNTFWSYAMGWYRQAPGNERELVAAITQRGGSTYYADSVKGRFTISRDNAKNTVYLQMNSLKPEDTAVYYCAADTSYKGDYWGQGTQVTVSS,high polyreactivity
9,QVQLVESGGGLVQAGGSLRLSCAASGFILRNNAMGWSRQAPGKEREFVAAISSGTRTNYADSVKGRFTISSDNAKNTVYLQMNSLKPEDTAVYYCDAYPTRYYVGYDYWGQGTQVTVSS,high polyreactivity
10,QVQLVESGGGLVQAGGSLRLSCAGSGRTFQYYAMGCYRQAPGKEMELVAGITGGGSTYYADSVKGRFTISRDNAKNTVYLQMNSLKPEDTAVYYCAADRSYYGYGYWGQGTQVTVSS,low polyreactivity
11,QVQLVESGGGLVQAGGSLRLSCAAYGITFYRNAMGWYRQAPGKEMELVAAITWNGGRTYYADSVKGRFTISRDNAKNTVYLQMNSLKPEDTAVYYCAADSGTLNLASYRYYYWGQGTQVTVSS,low polyreactivity
12,QVQLVESGGGLVQAGGRLRLICAASGSILRYAMGWYIQAPGKERELVAAISYGGGSTYYADSVKGRFTISRDNAKNTVYLQMNSLKPEDTAVYYCNARQYVWYPYEYWGQGTQVTVSS,high polyreactivity
13,QVQLVESGGGLDQAGGSLRLSCAASGITFTFNAMGWYRQAPGKERELVAAISSTTSTKYADSVKGRFTISRDNAKYTVYLQMNSLKPEDTAVYYCAAVEFELRGDYWGQGTQVTVSS,low polyreactivity
14,PLQLVESGGGLVQAGGSLRLSCAATGFIFAVNAMGWYRQAPGKERELVAAISSSGTTNYADSVKGRFTISRDNAKNTVYLQMNSLKPEDTAVYYCAADYHGSPEYDYWGQGTQVTVSS,low polyreactivity
15,QDQLVESGAGLVQAGRSLRLSCAASGSIFRWYAMGWYRQAPGKERELVAAISTSGGNTYYADSVKGRFTISRDNAKNTVYLEMKSLIPEDTAVYYCNALWYRSLYYRYDYWGQVTQVTVSS,high polyreactivity
16,QVQHVESGGALVKAGGSLRIRCAASGITFSKYAMGWYRQAPGKEMELVAAITRSGGSTYYADSVKGRFTISRDNGKNTVYLQMNSLKPEDTAVYSCIARGYFTGGDGGSGYWGQVTQVTVSS,high polyreactivity
17,QVQLVESGGGLVQAGGSLRLSCAASGRTFGRNAMGWYRQAPGKVRELVAAINSDGSTYYADSVKGRFTISRDNAKNTVYLQMNSLKPEDTAVYYCAADTWVWTDYFRRFEYWGQGTQVTVSS,high polyreactivity
18,QVQLVESGGGLVQAGGSLRLSCAASGRTFPFNAMGWYRQAPGKERELVAAIRWSGGSTYYADSVKGRFTISRDNAKNTVYLQMNSLKPEDTAVYYCAAVYPKIRSYRYGYWGQGTQVTVSS,high polyreactivity
19,QVQLVESGGGLVQAGGSLRLSCAASGNTFYLYAMGWYRKAPGKERELVASITGGTRTNYADSVKGRFTISRDNAKNTVYLQMNSLKPEDTAVYYCAVRYYWRRMNYWGQGTQVTVSS,high polyreactivity
20,QVQLVESGGGLVQAGGSLRLSSAASGRTIAYYTKGWYRQAPGKVRELVAAITWTGGRTYYPDSVKGRFTISRDIAKNTVYLQMNSLQPEDTAVYYCATQHRAGAYYLYTPYDYWGQGTQVTVSS,high polyreactivity
